Patent publication US20190071490A1, “Preventing Post-Ictal Headaches” (Beth Israel Deaconess Medical Center, Inc., priority 2017, published 2019)

Legend:
[1] = molecular target: T1, 38A (25-38A) human α-CGRP (Homo sapiens, UniProt P06881); test: Biacore affinity of G1 Fab to CGRP variant on chip; assay type: binding; conditions: 38A (25-38A) on chip, 37° C.
T1 construct: 25-38A; 24; purchased GenScript Corporation, New Jersey or Global Peptide Services, Colorado
Procedure: Biacore assay for affinity determination. […] All Biacore assays were conducted in HBS-EP running buffer (10 mM HEPES pH 7.4, 150 mM NaCl, 3 mM EDTA, 0.005% v/v polysorbate P20). CGRP surfaces were prepared by diluting the N-biotinylated CGRP to a concentration of less than 0.001 mg/mL into HBS-EP buffer and injecting it across the SA sensor chip using variable contact times. Low capacity surfaces, corresponding to capture levels <50 response units (RU) were used for high-resolution kinetic studies, whereas high capacity surfaces (about 800 RU of captured CGRP) were used for concentration studies, screening, and solution affinity determinations. […] Samples were typically injected for 1 minute at 100 μL/min and dissociation times of at least 10 minutes were allowed. After each binding cycle, surfaces were regenerated with 25 mM NaOH in 25% v/v ethanol, which was tolerated over hundreds of cycles. An entire titration series (typically generated in duplicate) was fit globally to a 1:1 Langmuir binding model using the BIAevaluation program. This returned a unique pair of association and dissociation kinetic rate constants (respectively, kon and koff) for each binding interaction, whose ratio gave the equilibrium dissociation constant (KD=koff/kon).

[2] = system: CSD-sensitized central trigeminovascular neurons (HT, WDR) in the spinal trigeminal nucleus; test: Activation and sensitization of trigeminovascular neurons by cortical spreading depression (CSD); assay type: in vivo, rat; conditions: for mean firing rate of HT neurons after CSD: 6 hours after 30 mg/kg i.v.; for mean firing rate of HT neurons before CSD: 4 hours after 30 mg/kg i.v.
Procedure: Cortical spreading depression (CSD) was induced mechanically by inserting a glass micropipette (tip diameter 25 μm) about 1 mm into the visual cortex for 10 sec. At a propagation rate of 3-5 mm/min, a single wave of CSD was expected to enter the neuronal receptive field within 1-2 min of cortical stimulation. For verification of CSD, cortical activity was recorded (electrocorticogram) with a glass micropipette (0.9% saline, ˜1 megohm, 7 um tip) placed just below the surface of the cerebral cortex (approximately 100 μm). The electrocorticogram electrode was positioned about 6 mm anterior to the visual cortex.
It was diluted in saline to a final dose of 30 mg/kg and administered intravenously (bolus injection, total volume 0.6-0.7 ml). A corresponding human IgG2 isotype control antibody (isotype-conAb) was also diluted in saline to a final dose of 30 mg/kg and administered intravenously (bolus injection, total volume 1.6-2.0 ml).
The experimental protocol included two parts. The first part was designed to compare CGRP-mAb vs isotype-conAb effects on spontaneous and induced activity of naïve trigeminovascular neurons, and the second part was designed to test CGRP-mAb vs isotype-conAb effects on the activation and sensitization of trigeminovascular neurons by CSD. Both parts included sampling of WDR and HT neurons in male and female rats. In the first part, the baseline neuronal profile was established by (a) mapping the dural, cutaneous and corneal receptive field; (b) measuring responses (mean spikes/sec) to mechanical stimulation of the dura (with a fixed force), skin (brush, pressure, pinch) and cornea (brush), and (c) measuring spontaneous firing rate (recorded over 30 min prior to treatment). Once the baseline was established, CGRP-mAb or isotype-conAb were administered and receptive fields were remapped, neuronal responses to stimulation of the dura, skin and cornea were re-examined, and the spontaneous activity rate was re-sampled at 1, 2, 3, and 4 hours post-treatment. The resulting values for each measure were then compared with the respective baseline values obtained before treatment. In the second part, CSD was induced 4 hours after administration of CGRP-mAb or isotype-conAb and 2 hours later (i.e., 6 hours after treatment) receptive field size, spontaneous activity rate, and response magnitude to stimulation of the dura, skin and cornea were measured again. The resulting post-CSD values for each measure were then compared with the respective pre-CSD values obtained at the 4-hour post-treatment time. This part was initiated only in cases in which the physiological condition of the rats (heart rate, blood pressure, respiration, end tidal CO2) and the neuronal isolation signal (signal-to-noise ratio ≥1:3) were stable at the 4-hour post-treatment time point.
To calculate the response magnitude to each stimulus, the mean firing frequency occurring before the onset of the first stimulus (30 min for spontaneous activity, 10 sec for mechanical stimulation of the dura, skin and cornea) was subtracted from the mean firing frequency that occurred throughout the duration of each stimulus. […] A neuron was considered activated when its mean firing rate after CSD exceeded its mean baseline activity by 2 standard deviations of that mean for a period >10 min, which translated to ≥33% increase in activity. […] Mean firing rates of respective values were compared using nonparametric statistics (Wilcoxon signed-ranks test). Two-tailed level of significance was set at 0.05.

[3] = system: first-order trigeminovascular neurons (A-delta and C-type meningeal nociceptors); test: Single-unit recording of first-order neurons in the trigeminal ganglion evoked by CSD; assay type: in vivo, rat; conditions: male rats
Procedure: CSD was induced by pinprick 4 hours after drug/isotype infusion.

[4] = male and female rats, case-by-case analysis

KD (nM) [1]: No binding detected
B1: G1: humanized monoclonal anti-CGRP antagonist antibody; heavy chain SEQ ID NO:11, light chain SEQ ID NO:12 (antibody)
heavy: EVQLVESGGGLVQPGGSLRLSCAASGFTFSNYWISWVRQAPGKGLEWVAEIRSESDASATHYAEAVKGRFTISRDNAKNSLYLQMNSLRAEDTAVYYCLAYFDYGLAIQNYWGQGTLVTVSSASTKGPSVFPLAPCSRSTSESTAALGCLVKDYFPEPVTVSWNSGALTSGVHTFPAVLQSSGLYSLSSVVTVPSSNFGTQTYTCNVDHKPSNTKVDKTVERKCCVECPPCPAPPVAGPSVFLFPPKPKDTLMISRTPEVTCVVVDVSHEDPEVQFNWYVDGVEVHNAKTKPREEQFNSTFRVVSVLTVVHQDWLNGKEYKCKVSNKGLPSSIEKTISKTKGQPREPQVYTLPPSREEMTKNQVSLTCLVKGFYPSDIAVEWESNGQPENNYKTTPPMLDSDGSFFLYSKLTVDKSRWQQGNVFSCSVMHEALHNHYTQKSLSLSPGK
light: EIVLTQSPATLSLSPGERATLSCKASKRVTTYVSWYQQKPGQAPRLLIYGASNRYLGIPARFSGSGSGTDFTLTISSLEPEDFAVYYCSQSYNYPYTFGQGTKLEIKRTVAAPSVFIFPPSDEQLKSGTASVVCLLNNFYPREAKVQWKVDNALQSGNSQESVTEQDSKDSTYSLSSTLTLSKADYEKHKVYACEVTHQGLSSPVTKSFNRGEC
difference between CGRP-mAb and isotype-conAb in HT neurons activated by CSD ([2]; case-by-case analysis): 86% | difference between CGRP-mAb and isotype-conAb in WDR neurons activated by CSD ([2]; case-by-case analysis): 2% | HT neurons with expansion of dural receptive fields after CSD (number/total) ([2]; female rats): 0/6 | HT neurons with expansion of facial receptive fields after CSD (number/total) ([2]; female rats): 0/6 | response of HT neurons to dural indentation with VFH before CSD ([2]; female rats): 10.5±1.6 spikes/sec | response of HT neurons to brushing the cornea after CSD vs before ([2]; female rats, 6 HT neurons, p=0.51): remained unchanged | mean firing rate of HT neurons after CSD ([2]; female rats, 2 hours after CSD): 5.0±3.4 spikes/sec | response of HT neurons to dural indentation with VFH after CSD ([2]; female rats, 2 hours after CSD, 6 hours after administration): 8.1±6.4 spikes/sec | mean firing rate of HT neurons before CSD ([2]; female rats): 3.3±1.7 spikes/sec | neuronal responses of HT neurons to brush, pressure and pinch after CSD vs before ([2]; male and female rats, 2 hours after CSD, 6 hours after administration): remained unchanged | HT neurons activated by CSD (number/total) [2, 4]: 2/14 | WDR neurons activated by CSD (number/total) [2, 4]: 5/13 | HT neurons with expansion of dural receptive fields after CSD (number/total) ([2]; male rats): 2/8 | HT neurons with expansion of facial receptive fields after CSD (number/total) ([2]; male rats): 2/8 | response of HT neurons to corneal stimulation after CSD ([2]; male rats): 9.4±1.8 spikes/sec | response of HT neurons to corneal stimulation before CSD ([2]; male rats): 10.8±3.3 spikes/sec | response of HT neurons to dural indentation with VFH before CSD ([2]; male rats): 1.8±0.6 spikes/sec | mean firing rate of HT neurons after CSD ([2]; male rats, 2 hours after CSD): 1.9±1.5 spikes/sec | response of HT neurons to dural indentation with VFH after CSD ([2]; male rats, 2 hours after CSD, 6 hours after administration): 1.9±1.5 spikes/sec | mean firing rate of HT neurons before CSD ([2]; male rats): 1.2±0.6 spikes/sec | activation of meningeal nociceptors by CSD (FIGS. 23A and 23B) [3]: prevents the activation of most a-delta and some C-type meningeal nociceptors | C-fibers activated by CSD ([3]; 30 mg/kg IV 4 hours before CSD): 23% | a-delta fibers activated by CSD ([3]; 30 mg/kg IV 4 hours before CSD): 14% | neurons tested that were activated by CSD ([3]; 30 mg/kg IV 4 hours before CSD, all first-order neurons): 20%
